Measurements taken from patent CN101696242A.

Biological target: CVS-11
Assay: cell-based or functional assay

B1: 人源抗狂犬病毒中和抗体Fab (Fab, V domains shown)
VH: ELLESGGGLVQPGGSLRLSCAASGFTFSSYAMSWVRQAPGKGLEWVSSINRSGDITTYADSVKGRFTISRDNSKNTLYLQMNSLRAEDTAVYYCAKKTRRFDYWGQGTLVTVSS
VL: ESALTQPRSVSGSPGQSVTISCTGTSSDIGGYNFVSWYQQHPGKAPKLMIYDATKRPSGVPDRFSGSKSGNTASLTISGLQAEDEADYYCCSYAGDYTPGVVFGGGTKLTVLG
中和效价 (狂犬病荧光抗体病毒中和试验 FAVN, BHK-21细胞): 10.3 IU/mL
